Experimental data from patent US20160304578A1 (XYPHOS BIOSCIENCES, published 2016).

B1: WT α1-α2 soluble MICA protein (ligand, UniProt Q29983 24-299, looked up)
chain: EPHSLRYNLTVLSWDGSVQSGFLTEVHLDGQPFLRCDRQKCRAKPQGQWAEDVLGNKTWDRETRDLTGNGKDLRMTLAHIKDQKEGLHSLQEIRVCEIHEDNSTRSSQHFYYDGELFLSQNLETKEWTMPQSSRAQTLAMNVRNFLKEDAMKTKTHYHAMHADCLQELRRYLKSGVVLRRTVPPMVNVTRSEASEGNITVTCRASGFYPWNITLSWRQDGVSLSHDTQQWGDVLPDGNGTYQTWVATRICQGEEQRFTCYMEHSGNHSTHPVPSGK
notes: also called WT MICA; WT NKG2DL

Key:
[1] = target: T1, human NKG2D-Fc (human, UniProt P26718 78-216, limits assumed); experiment: competition ELISA: inhibits 2 nM human NKG2D-Fc binding to plate-coated WT sMICA
T1 construct: not shown: Fc part
T1 sequence (looked up): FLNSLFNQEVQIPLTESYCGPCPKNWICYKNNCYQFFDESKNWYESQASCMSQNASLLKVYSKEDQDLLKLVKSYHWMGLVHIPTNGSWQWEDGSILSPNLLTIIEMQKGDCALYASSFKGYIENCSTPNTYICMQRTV

[2] = target: B1; experiment: biolayer interferometry (Octet), Kd = kOFF/kON
[3] = target: B1; experiment: biolayer interferometry (Octet), surface-coated biotinylated human NKG2D, 100 nM protein

Work on B1 yielded an IC50 [1] of 19.4 nM.

B2: biotinylated human NKG2D (receptor, UniProt P26718 78-216, looked up)
chain: FLNSLFNQEVQIPLTESYCGPCPKNWICYKNNCYQFFDESKNWYESQASCMSQNASLLKVYSKEDQDLLKLVKSYHWMGLVHIPTNGSWQWEDGSILSPNLLTIIEMQKGDCALYASSFKGYIENCSTPNTYICMQRTV
modifications: biotinylated (site not stated)
notes: also called recombinant biotinylated NKG2D
Binder B2 has a Kd [2] of 13.8 nM, a koff [3] of 0.0018 s⁻¹ and a kon [3] of 130000 M⁻¹ s⁻¹.
